Assay results from publication PMC8972186.

Assays:
[1] = target: dynamic microtubules grown from purified bovine brain tubulin (bovine) (UniProt Q6B856); experiment: optical trap rupture force assay
[2] = target: dynamic microtubules grown from purified bovine brain tubulin (bovine) (UniProt Q6B856); experiment: optical trap force clamp assay

median rupture strength [1]: 3.2 pN
percent of beads tracking with shortening microtubule tips under 1.5 pN [2]: 7%
Substance: wild-type Ndc80 complex (from UniProt P40460 1-691; P33895 1-451; Q04477 1-213; P40014 1-221)
